Laboratory results reported in US11407811B2, “Fusion protein, preparation method therefor and use thereof” (JIANGSU RONGTAI BIOTECH CO., LTD., priority 2017, dated 2022).

System: melanoma cell line B16F10
Experiment: MTT assay, proliferation of melanoma cell B16F10
Assay type: cell-based
Method: The MTT assay was used to detect the inhibitory effect of the integrin blocker fusion protein obtained in Example 1 on the proliferation of various tumor cells, including melanoma cell B16F10, gastric cancer cell MGC-803, lung cancer cell A549, liver cancer cell Hep-G2, breast cancer cell MDA-MB-231, colon cancer cell HCT-116, human glioma U87, and cervical cancer cell Hela.
The tumor cells were cultured in a 5% CO2 incubator at 37° C. to a density of 90% or more, and collected by trypsinization. The cells were resuspended in the culture liquid and counted under a microscope. The cell concentration was adjusted to 3.0×10^4 cells/mL. The cell suspension was inoculated into a 96-well plate at 100 μL per well and cultured overnight in a 5% CO2 incubator at 37° C. […] After the cells were fully adhered, each dilution was added to a 96-well plate at 100 μL per well, respectively. […] 20 μL of 5 mg/mL MTT was added to each well of a 96-well plate, and incubation was continued for 4 hours. The medium was aspirated and 100 μL of DMSO per well were added to dissolve. The absorbance was measured at 570 nm with a microplate reader with a reference wavelength of 630 nm, and the proliferation inhibition (PI) was calculated. The formula is as follows: […]
where Ntest is the OD value of the test group and Ncontrol is the OD value of the blank control group.
The test was repeated 5 times independently. The results obtained from the test were calculated as mean±SD, and statistical t-test was performed. P<0.05 was considered as a significant difference, and P<0.01 was considered as an extremely significant difference.

B1: Protein II: IgG2-Fc linked to antiangiogenesis polypeptide EDSM-Y via a flexible linker; SEQ ID NO: 17 (protein)
chain: ERKCCVECPPCPAPPVAGPSVFLFPPKPKDTLMISRTPEVTCVVVDVSHEDPEVQFNWYVDGVEVHNAKTKPREEQFNSTFRVVSVLTVVHQDWLNGKEYKCKVSNKGLPAPIEKTISKTKGQPREPQVYTLPPSREEMTKNQVSLTCLVKGFYPSDISVEWESNGQPENNYKTTPPMLDSDGSFFLYSKLTVDKSRWQQGNVFSCSVMHEALHNHYTQKSLSLSPGKGGGGSGGGGSGGGGSFQPVLHLVALNSPLSGGMRGIRGADFQCFQQARAVGLAGTFRAGGGGRGD
For B1, the “A570 nm/A630 nm” value (dose 1 μg/mL) was 1.1137 ± 0.0370, the “PI (%)” value (dose 1 μg/mL) was 11.17% and the “A570 nm/A630 nm” value (dose 2 μg/mL) was 1.0250 ± 0.0230. The “PI (%)” value (dose 2 μg/mL) was 18.24%, the “A570 nm/A630 nm” value (dose 4 μg/mL) was 0.8986 ± 0.0731 and the “PI (%)” value (dose 4 μg/mL) was 28.32%. For the same molecule, the “A570 nm/A630 nm” value (dose 8 μg/mL) was 0.7243 ± 0.0421, the “PI (%)” value (dose 8 μg/mL) was 42.23% and the “A570 nm/A630 nm” value (dose 16 μg/mL) was 0.6400 ± 0.0661. The “PI (%)” value (dose 16 μg/mL) was 48.95%, the “A570 nm/A630 nm” value (dose 32 μg/mL) was 0.5034 ± 0.0286 and the “PI (%)” value (dose 32 μg/mL) was 59.85%. The “A570 nm/A630 nm” value (dose 64 μg/mL) was 0.3867 ± 0.0195, the “PI (%)” value (dose 64 μg/mL) was 69.16% and the “PI (%)” value (dose 128 μg/mL) was 76.59%. For the same molecule, the “A570 nm/A630 nm” value (dose 256 μg/mL) was 0.1777 ± 0.0212 and the “PI (%)” value (dose 256 μg/mL) was 85.83%.
